Assay: parallel wall flow chamber, 293T α4β7 transfectants
Details: glycan lost; control: wild type

B1: integrin β7 subunit: N260A (protein)
parent chain: MVALPMVLVLLLVLSRGESELDAKIPSTGDATEWRNPHLSMLGSCQPAPSCQKCILSHPSCAWCKQLNFTASGEAEARRCARREELLARGCPLEELEEPRGQQEVLQDQPLSQGARGEGATQLAPQRVRVTLRPGEPQQLQVRFLRAEGYPVDLYYLMDLSYSMKDDLERVRQLGHALLVRLQEVTHSVRIGFGSFVDKTVLPFVSTVPSKLRHPCPTRLERCQSPFSFHHVLSLTGDAQAFEREVGRQSVSGNLDSPEGGFDAILQAALCQEQIGWRNVSRLLVFTSDDTFHTAGDGKLGGIFMPSDGHCHLDSNGLYSRSTEFDYPSVGQVAQALSAANIQPIFAVTSAALPVYQELSKLIPKSAVGELSEDSSNVVQLIMDAYNSLSSTVTLEHSSLPPGVHISYESQCEGPEKREGKAEDRGQCNHVRINQTVTFWVSLQATHCLPEPHLLRLRALGFSEELIVELHTLCDCNCSDTQPQAPHCSDGQGHLQCGVCSCAPGRLGRLCECSVAELSSPDLESGCRAPNGTGPLCSGKGHCQCGRCSCSGQSSGHLCECDDASCERHEGILCGGFGRCQCGVCHCHANRTGRACECSGDMDSCISPEGGLCSGHGRCKCNRCQCLDGYYGALCDQCPGCKTPCERHRDCAECGAFRTGPLATNCSTACAHTNVTLALAPILDDGWCKERTLDNQLFFFLVEDDARGTVVLRVRPQEKGADHTQAIVLGCVGGIVAVGLGLVLAYRLSVEIYDRREYSRFEKEQQQLNWKQDSNPLYKSAITTTINPRFQEADSPTL
  other: rolling cell adhesion in shear flow: increases
